In data set [1] the target is T1, hrPrP23-231 (recombinant human prion protein, full length) (Homo sapiens, UniProt P04156 P04156:23-231). As to the kind of experiment: filter; with 10 ng/uL tRNA; 250 mM NaCl, 37 C. Conditions: tags: provided by Man-Sun Sy, Case Western; label: internal 32P.
Data set [2] addresses T1, hrPrP23-231 (recombinant human prion …). In words: filter; no tRNA; 2 mM MgCl2, 250 mM NaCl, 37 C. Conditions: tags: provided by Man-Sun Sy, Case Western; label: internal 32P.
In data set [3] the target is T2, hrPrP23-144 (N-terminal portion) (Homo sapiens, UniProt P04156 P04156:23-144). As to the kind of experiment: filter; 20 nM protein, Buffer B with tRNA. Conditions: tags: provided by Man-Sun Sy, Case Western; label: internal 32P.
Data set [4] concerns the target hrPrP90-231 (C-terminal portion) (Homo sapiens, UniProt P04156 P04156:90-231). In words: filter; 20 nM protein; no detectable binding. The note with it: tags: provided by Man-Sun Sy, Case Western, label: internal 32P.
For data set [5], the target named is BSA (bovine serum albumin) (UniProt P02769 P02769:25-607). As to the kind of experiment: filter; Buffer A with 10 ng/uL tRNA; background level. The note with it: tags: Ultra-pure BSA, Ambion; label: internal 32P.
The target in data set [6] is lysozyme (UniProt P00698 P00698:19-147). As to the kind of experiment: filter; 2 nM RNA, 20 nM protein, Buffer A with 10 ng/uL tRNA; background level. The note with it: label: internal 32P.
Data set [7] concerns the target T1, hrPrP23-231 (recombinant human prion …). In words: filter; […]; 2 mM MgCl2, 250 mM NaCl, 37 C; […]. The note with it: tags: provided by Man-Sun Sy, Case Western; label: internal 32P; G4 (AP1 insert).
For data set [8], the target named is T2, hrPrP23-144 (N-terminal portion). As to the kind of experiment: filter; 20 nM protein, no tRNA. The note with it: tags: provided by Man-Sun Sy, Case Western; label: internal 32P.

B1: AP46 (ssRNA)
RNA: GGGAAUUUGAGGACGAUGGUAAGUGG
Usually Kd stands for the constant that tells how readily two partners part at equilibrium. As to B1, the Kd in data set [1] came out at 100 nM; in data set [2], 14 nM.

B2: RQ11+12 (ssRNA)
RNA: GGGGUUUCCAACCGGAAUUUGAGGGAUGCCUAGGCAUCCCCCGUGCGUCCCUUUACGAGGGAUUGUCGACUCUAGUCGACGUCUGGGCGAAAAAUGUACGAGAGGACCUUUUCGGUACAGACGGUACCUGAGGGAUGCCUAGGCAUCCCCCGCGCCGGUUUCGGACCUCCAGUGCGUGUUACCGCACUGUCGACCC
Consider B2, for which the binding result in data set [3] is “binds”; in data set [4], “no binding”; in data set [5] it was “no binding”; in data set [6], “no binding”.

B3: RQT157 (ssRNA)
RNA: GGGGUUUCGAACCGGAAUUUGAGGGAUGCCUAGGCAUCCCCCGUGCGUCCCUUUACGAGGGAUUGUCGACUCUAGAGGAUCCGGUACCUGAGGGAUGCCUAGGCAUCCCCGCGCGCCGGUUUCGGACCUCCAGUGCGUGUUACCGCACUGUCGACCC
As to B3, the Kd in data set [2] worked out at 56 nM.

B4: MNV:AP1 (PrP-Amp) (ssRNA)
RNA: GGGUUCAUAGCCUAUUCGGCUUCGCGCAUGGGAAUUUGAGGGACGAUGGGGAAGUGGGAGCGCGUUUUAAAGGACCUUUUUCCCUCGCGUAGCUAGCUACGCGAGGUGACCCCCCGAAGGGGGGUGCCCC
For the molecule B4, in data set [4] (G4 (AP1 insert)), the binding result is on record as “no binding”. Also, the Kd in data set [7] was 3.8 nM.

B5: MNV (ssRNA)
RNA: GGGUUCAUAGCCUAUUCGGCUUUUAAAGGACCUUUUUCCCUCGCGUAGCUAGCUACGCGAGGUGACCCCCCGAAGGGGGGUGCCCC
As for B5, the binding result is recorded as “binds” in data set [8] and “no binding” in data set [4].

The values are drawn from US20040005543, “Compositions and methods for binding agglomeration proteins” (published 2004).
